In the supplement of paper PMC9170038:

System: MS2 coat protein
Assay: apparent KD of MS2 coat protein; designed switch direction (-1 OFF switch, 1 ON switch): -1; higher = weaker reporter binding
Outline: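 For each design, the apparent KD is the median over clusters of curves fitted to normalised cluster fluorescence. Clusters held RNA switches with common flanks, transcribed on Illumina chips by stalled E. coli RNA polymerase. These were titrated with SNAP-549-labelled MS2 coat protein, doubling from 0.7 or 1.5 nM to 3 µM, without input, with 200 uM small-molecule ligand, or with an oligonucleotide input.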

[1] = input ligand: microRNA oligo, concentration not stated
[2] = Eterna round: R95, input ligand: FMN 200 uM
[3] = Eterna round: R95, input ligand: microRNA oligo, concentration not stated
[4] = Eterna round: R95, input ligand: none

Row | Sequence | apparent KD of MS2 coat protein (input ligand: FMN 200 uM) | apparent KD of MS2 coat protein [1] | apparent KD of MS2 coat protein (input ligand: none) | apparent KD of MS2 coat protein [2] | apparent KD of MS2 coat protein [3] | apparent KD of MS2 coat protein [4]
1 | UGUUGUCGCGCAGGAUAUGAGGAUCACCCAUAUGGAGGAUAUGAAAAGAAGGUUCUGAGGAUCACCCAGAAGGGCGGGACAACU [pwkr exNG2 2xF5 2xFMN.20] (Eterna round: R96, puzzle: Exclusion NG 2) | 261 nM | 43 nM | 60.6 nM |  |  | 
2 | UGUUGUCGCGUAGGAUAUGCAUGAGGAUCACCCAUGCAAUUAGAGUUAACAUGAGGAUCACCCAUGUAGAAGGACGGGACAACU [pwkr exNG2 2xF5 1xFMN.6] (Eterna round: R96, puzzle: Exclusion NG 2) | 89.2 nM | 34.6 nM | 54.1 nM |  |  | 
3 | UGUUGUCGCGUAGGAUAUGCAUGAGGAUCACCCAUGCAAUUAGAGUUAACAUGAGGAUCACCCAUGUAGAAGGGCGGGACAACU [pwkr exNG2 2xF5 1xFMN.7] (Eterna round: R96, puzzle: Exclusion NG 2) | 62.8 nM | 42.2 nM | 51.2 nM |  |  | 
4 | UGUUGUUACGCAGGAUAUGAGGAUCACCCAUAUCAGGAUAUCGAAAGAGAAUUUCUGAGGAUCACCCAGAAGGGCGGGUUAACA [pwkr exNG2 2xF5 2xFMN.37] (Eterna round: R96, puzzle: Exclusion NG 2) | 125 nM | 40.3 nM | 47.7 nM |  |  | 
5 | UGUUGUUCAGGAUAUGAUGUAUAAUACAUGAGGAUCACCCAUGUAGAUCCUGAAUUAACAUCAGAAGGGAAUAUUU [JL-ex5-4.59 Brourd mod] (Eterna round: R97, puzzle: Exclusion 5) | 19.8 nM |  | 17.2 nM |  |  | 
6 | UGUUGUUCCGAAGGAUAUGUAUGAGGAUCACCCAUAAGAGUUGAUGUACCAUGAGGAUCACCCAUGUAGAAGGUCGGGUUAACU [pwkr exNG2 2xF5 1xFMN.20] (Eterna round: R96, puzzle: Exclusion NG 2) | 200 nM | 52.6 nM | 101 nM |  |  | 
7 | UGUUGUUGCGUAGGAUAUUGCCAACAGGCAGUAGGAUAUGCGAAAGCAGAAGGACCGCCAACAGGCGAGAAGGACGGGACAACU [pwkr exNG2 2xF7 2xFMN.13] (Eterna round: R96, puzzle: Exclusion NG 2) | 177 nM | 39.4 nM | 72.6 nM |  |  | 
8 | UUAAAUCAUGUAGGAUAUGCGUGGCGAAGCUAUGCAGAAGGACAUGAGGAUCACCCAUGUCUUUCCGUCUGCGUACAGAUGGAG [JL Eng1 1.08 mod 4] (Eterna round: R96, puzzle: Exclusion NG 1) | 191 nM | 17.4 nM | 24.7 nM |  |  | 
9 | UUAACCAGAGGAUAUGCGAAUAAAUAAAACUUUUUUUUUUAACAUGAGGAUCACCCAUGUAGAAGGCUGCAUUU [Ex2 #30] (Eterna round: R97, puzzle: Exclusion 2) | 25.4 nM |  | 25.1 nM |  |  | 
10 | UUAAGCUUUGAGAUCCUUAACAUGAGGAUCACCCAUGUUCGUCUUAUGAUGGUCUGAUCCCUGAGGAUCGGACCGUA [Mat - Sensor v3 - turn-off var 1 - JL Mod - D4] (puzzle: Sensor v3, turn-off variant 1) |  |  |  | 180 nM | 11.2 nM | 219 nM
11 | UUAAUGUGAGGAUAUCAAGAGAGAAAGAGUAAUGGUAAAUAUGAGAAGGCACAUGAGGAUCACCCAUGUUCUUC [Mat - Exclusion 4 - Mod of JL - D60] (puzzle: Exclusion 4) |  |  |  |  | 14.2 nM | 
12 | UUAAUGUGAGGAUAUGGUAAAGAUAGAAUGAUGAAAGAACUCCAGAAGGCACAUGAGGAUCACCCAUGUAGAUG [Mat - Exclusion 4 - Mod of JL - D28] (puzzle: Exclusion 4) |  |  |  | 68.3 nM | 30.5 nM | 42 nM
13 | UUAAUUAAUGUCAGGAUAUCUAGAGCCUCGGCUCUAGAGAAGGGACAUGAGGAUCACCCAUGUCACUCUUAAUU [BmEx4/3-C2] (Eterna round: R97, puzzle: Brourd's mod of Exclusion 4) | 19.5 nM |  | 18.7 nM |  |  | 
14 | UUAAUUAAUUAAGGCUGAAGAUCACAUGAGGAUCACCCAUGUAAGGAUAUCAGCUCGUUUAGAGCUGAGAAGGUACAUGCAGCC [ExNG3/18-B2] (Eterna round: R96, puzzle: Exclusion NG 3) | 160 nM | 568 nM | 370 nM |  |  | 
15 | UUAAUUAAUUUAAUAUAAGAUCACAUGAGGAUCACCCAUGUAUAGGAUAUCAGCUCGUGUAGAGCUGAGAAGGAUACAUAAUAU [ExNG3/2-B3] (Eterna round: R96, puzzle: Exclusion NG 3) | 105 nM | 161 nM | 155 nM |  |  | 
16 | UUAAUUAGCUCGCUAGAUCCUCACAUGAGGAUCACCCAUGUGCAGGAUAUCAGCUCGUGUAGAGCUGAGAAGGGCACUGCGAGC [ExNG3/10-A3] (Eterna round: R96, puzzle: Exclusion NG 3) | 51.6 nM | 88.2 nM | 108 nM |  |  | 
17 | UUAAUUUGAGGAUAUACUAUUAACCACAUGAGGAUCACCCAUGUUCUAUCAUGUAUAUGUGUAGAAGGCAGAAUGC [JR_Ex5_Sub071] (Eterna round: R97, puzzle: Exclusion 5) | 58.1 nM |  | 50.7 nM |  |  | 
18 | UUACAAUGUCGCUUAAUAGCUUUUUGCUCGUCUUAUAUUACAUGAGGAUCACCCAUGUAGAUCAUGUGGCGUGACCU [JL ViennaUCT Maridi mod 7] (puzzle: Sensor v3, turn-off variant 2) |  |  |  | 206 nM | 40.7 nM | 210 nM
19 | UUACGGCGGAGAGGAUAUCCGAAAGGAAGUGUAGGAGAAGGCUCCAGUUGUACAUGAGGAUCACCCAUGUGAUCCUUUCCGAAA [PowerStrip EXNG 1.25] (Eterna round: R96, puzzle: Exclusion NG 1) | 2040 nM | 79.7 nM | 126 nM |  |  | 
20 | UUAGUAUUGCAAGGAUAUGUUUAUGAUAUUUUUCCUCUUACAUGAGGAUCACCCAUGUUUAACUUACAGAAGGUGCUAUGAUUU [JR_ExcNG2_Sub031] (Eterna round: R96, puzzle: Exclusion NG 2) |  | 342 nM |  |  |  | 
21 | UUAUACAAGCAAAGAUCCCACAUGAGGAUCACCCAUGUGCUCGUCUUAUAAGGUACUGUGACGAUAGUCACGGUACC [Mat - Sensor, turn-off var - Eli Mod - D102] (Eterna round: R97, puzzle: Sensor, turn-off variant 1) | 38.3 nM |  | 49.9 nM |  |  | 
